Reference: patent US20250236667A1, “ANTIBODIES TO MUTANT CALRETICULIN AND USES THEREOF” (CENTRAL ADELAIDE LOCAL HEALTH NETWORK INC, priority 2021, published 2025)

Experiments:
Assay type in all cases: cell-based, human
[1] = system: JAK2 V617F SET2 cells; test: Cell proliferation, trypan blue exclusion; conditions: 2, 10 or 20 μg/mL
Procedure: (§1) A. Cytokine dependent TF-1 TpoR cells with an overexpression of WT CALR cultured in the absence of TPO, 10 ng/ml hTPO and 10 or 20 μg/mL 4D7 anti-mutant CALR antibody or 20 μg/mL control IgG antibody for 5 days and the number of trypan blue negative cells were counted every 24 hours (n=3). B. Cytokine dependent TF-1 CALR^del52 cells, lacking TpoR were cultured in the presence of 2 ng/mL GM-CSF and 10 or 20 μg/mL 4D7 or 20 μg/mL control IgG antibody (n=3). C. Cytokine dependent TF-1 CALR^del61 cells, lacking TpoR were cultured in the presence of 2 ng/ml GM-CSF and 10 or 20 μg/mL 4D7 or 20 μg/mL control IgG antibody (n=3). D. MARIMO cells from which the CALR^del61 mutation was originally amplified were cultured in the presence of 2, 10 or 20 μg/mL 4D7 or 20 μg/mL control IgG antibody (n=3). E. Cytokine independent SET2 cells which harbour the pathogenic JAK2^V617F mutation were cultured in the presence of 2, 10 or 20 μg/mL 4D7 or 20 μg/mL control IgG antibody (n=3). F. Cytokine independent TF-1 PTPN11^E76K cells were cultured in the presence of 10 or 20 μg/mL 4D7 or 20 μg/mL control IgG antibody (n=3).
(§2) In brief, cells were seeded at 5×10^4/mL in standard growth media, with any necessary cytokines, and the addition of 20 μg/mL IgG or 2, 10 or 20 μg/mL 4D7. Cells were seeded in triplicate and each well was counted in triplicate every 24 hours for 5 days using trypan blue exclusion.

[2] = system: MARIMO cells; test: Cell proliferation, trypan blue exclusion; conditions: 2, 10 or 20 μg/mL
Procedure: as §1, §2

[3] = system: TF-1 CALR^del52 cells, lacking TpoR; test: Cell proliferation, trypan blue exclusion; conditions: 2 ng/mL GM-CSF; 10 or 20 μg/mL
Procedure: as §1, §2

[4] = system: TF-1 CALR^del61 cells, lacking TpoR; test: Cell proliferation, trypan blue exclusion; conditions: 2 ng/ml GM-CSF; 10 or 20 μg/mL
Procedure: as §1, §2

[5] = system: TF-1 cells with overexpression of wild type CALR; test: Cell proliferation, trypan blue exclusion; conditions: 10 or 20 μg/mL; 10 ng/ml hTPO
Procedure: as §1, §2

[6] = system: TF-1 expressing the PTPN11 E76K mutation; test: Cell proliferation, trypan blue exclusion; conditions: 10 or 20 μg/mL
Procedure: as §1, §2

[7] = system: primary CD34+ cells from patients with CALR mutant myelofibrosis; test: TPO-independent megakaryocyte colony formation on collagen-based medium (MegaCult)
Excerpt: Patient samples were collected with informed consent from the South Australian Cancer Research Biobank (SACRB: Adelaide, Australia). Primary CD34+ stem/progenitor cells from peripheral blood samples from patients with JAK2^V617F or CALR mutant myelofibrosis were purified by flow cytometry using CD34-APC antibody, anti-human CD45RA Brilliant Violet 605, anti-CD90 FITC, anti-human CD123-PE, anti-human CD38 PE-Cy7, or with CD34-APC antibody, anti-human CD3 FITC, anti-human CD19-PE (clone H1B19) and anti-human CD14 PE-Cy7.
For megakaryocyte differentiation assays, CD34+ cells derived from cord blood or from patient peripheral blood mononuclear fractions were plated in Megacult (MegaCult™-C Collagen and Medium with Lipids) with added IL-3 and IL-6 (10 ng/ml) in the presence or absence of 50 ng/mL TPO. Cells were plated at an initial density of 1800 cells/well and cultured for 12 days at 37° C. and 5% CO2. […] Culture media was replenished every 3 days and cells were assessed for megakaryocyte differentiation on day 12 using anti-human CD41/61 PE-Cy7 (Clone A2A9/6) and CountBright beads (Thermo Fisher) to enumerate cell numbers. […] Cells were seeded at approximately 100 cells per well and were cultured in the presence of 20 μg/mL 4D7 or control IgG antibody and scored for colony and blast forming units at 12-14 days.

B1: 4D7: rat monoclonal IgG2a antibody against the mutant CALR neoepitope; VH SEQ ID NO: 5, VL SEQ ID NO: 7 (antibody, listed as Rattus rattus, V domains shown)
VH: QVQLQQSGAELAKPGSSVKISCKASGYTFTNYDMSWIKQRPGQALEWIGAINPGNGVTDYNEKFRGKATLTVDKSSSTAFMQLSSLTPEDTAVYHCAREYRDNYGYFDYWGQGVMVTVSS
VL: DIVLTQTPVSLSVTLGDQASISCRSSQSLEYSDGYTYLDWFLQKPGQSPQLLIYEVSSRFSGVPDRFIGRGSGTDFTLKISRVEPEDLGVYYCFQATHDPFTFGSGTKLEIK
B1 was tested, and the inhibition of proliferation [1] was “no inhibition”, the inhibition of proliferation [2] was “did not show inhibition” and the effect on proliferation [3] was “unaffected”. The effect on proliferation [4] was “unaffected”, the inhibition of proliferation [5] was “No inhibition” and the inhibition of proliferation [6] was “no inhibition”. The “decrease of primary TPO-independent megakaryocyte colonies (colony-forming unit-mega)” value ([7]; 20 μg/mL vs IgG, n=4 patient samples) was 46% and the “size of megakaryocyte colonies” value ([7]; patient with a type 2 mutation) was “substantially smaller”.
